Measurements reported in US20230192897A1 (NUMAB THERAPEUTICS, published 2023).

Tests used:
[1] = molecular target: human PDL1 on cells (human, UniProt Q9NZQ7 19-290); test: cell-based or functional assay
[2] = molecular target: T1, biotinylated human PDL1 (human, UniProt Q9NZQ7 19-238, limits assumed, biotinylated); test: competition ELISA B7.1/PDL1
T1 construct: also called biotinylated PDL1
Method in brief: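 IC₅₀ was derived by four-parameter logistic fitting of reference-subtracted A450/690 readings. The signal came from streptavidin-polyHRP40 (10 ng/ml) with a 6-minute TMB reaction detecting biotinylated PDL1 bound to the plate. Pre-mixed samples sat 1 h at RT before a 1.5 h plate incubation.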

[3] = molecular target: T2, cynomolgus PDL1-Fc chimeric protein (cynomolgus monkey, UniProt G7PSE7 19-239); test: SPR
T2 construct: PDL1-Fc chimeric protein from different species captured on the chip
Method in brief: (§1)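 Kinetics were fitted with a one-to-one Langmuir model to give apparent ka, kd and KD. Binders at 0.12-90 nM (three-fold series) flowed 3 min, with 10 min dissociation and 3 M MgCl₂ regeneration, on a Biacore T200.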

[4] = molecular target: T3, Fc tagged human PDL1 (human, UniProt Q9NZQ7 19-239); test: SPR
T3 construct: Bought (Sino Biological, cat. 10084-H02H); captured on the SPR chip; also called PDL1-Fc chimeric protein
Method in brief: as §1

[5] = molecular target: T1, biotinylated human PDL1; test: competition ELISA PD-1/PDL1
[6] = molecular target: T4, CD137 on Jurkat NFkB reporter cells (human, UniProt Q07011 24-255); test: cell-based or functional assay
[7] = molecular target: T4, CD137 on Jurkat NFkB reporter cells; test: cell-based or functional assay; remark: listed apart in the source
[8] = molecular target: T5, human serum albumin (human, UniProt P02768 25-609); test: SPR, SA coupled to chip, pH 5.5
T5 construct: Coupled directly to the CM5 chip; also called HSA; human SA
Protocol: Affinity of molecules to serum albumin (SA) of the different species was determined by SPR measurements using a Biacore T200 device (GE Healthcare). SA was directly coupled to a CM5 sensor chip (GE Healthcare) using amine coupling chemistry. […] The assay was run in a 1× PBS-Tween buffer at pH 5.5.

[9] = molecular target: T6, Fc tagged human CD137 (human, UniProt Q07011 24-186); test: SPR
T6 construct: also called CD137-Fc chimeric protein
Method in brief: as §1

B1: PRO1013 (scFv)
scFv: DIQMTQSPSSLSASVGDRVTITCQASQSIGTYLAWYQQKPGKAPKLLIYRAFILASGVPSRFSGSGSGTDFTLTISSLQPEDFATYYCQSNFYSDSTTIGPNAFGTGTKVTVLGGGGGSGGGGSGGGGSGGGGSQVQLVQSGAEVKKPGASVKVSCKASGFSFNSDYWIYWVRQAPGQGLEWMGSIYGGSSGNTQYASWAQGRVTMTRDTSISTAYMELSSLRSEDTAVYYCARGYVDYGGATDLWGQGTLVTVSS
notes: anti-PDL1 scFv; also called 37-20-B03 sc02 scFv; 37-20-B03 CDR, VH1
- IC50 (ng/ml), NF-AT potency assay [1]: 21.3 ng/mL
- rel. IC50 (avelumab/test) [1]: 1.6 fold
- IC50 [2]: 4.05 ng/mL
- rel. IC50 (IC50 avelumab/IC50 test) [2]: 3.68 fold
- koff [3]: 0.00032 s⁻¹
- kon [3]: 5.9e+06 M⁻¹ s⁻¹
- Kd [4]: 0.045 nM
- koff [4]: 0.00027 s⁻¹
- kon [4]: 6e+06 M⁻¹ s⁻¹
- IC50 [5]: 0.57 ng/mL
- rel. IC50 (IC50 avelumab/IC50 test) [5]: 3.67 fold

B2: PRO1479 (other)
chain: DIQMTQSPASLSASVGDRVTITCQASQSIGTYLAWYQQKPGKPPKLLIYRAFILASGVPSRFSGSGSGTDFTLTISSLQPEDFATYYCQSNFYSDSTTIGPNAFGTGTKVTVLGGGGGSEVQLVESGGGLVQPGGSLRLSCAASGFSFSNSYWICWVRQAPGKCLEWIGCTFVGSSDSTYYANWAKGRFTISRDNSKNTVYLQMNSLRAEDTAVYYCARHPSDAVYGYANNLWGQGTLVTVSSGGGGSGGGGSGGGGSGGGGSIQMTQSPSSLSASVGDRVTITCQASQSINNVLAWYQQKPGKAPKLLIYRASTLASGVPSRFSGSGSGTDFTLTISSLQPEDFATYYCQSSYGNYGDFGCGTKVTVLGGGGGSEVQLVESGGGLVQPGGSLRLSCAASGFSFNSDYWIYWVRQAPGKGLEWIASIYGGSSGNTQYASWAQGRFTISRDNSKNTVYLQMNSLRAEDTAVYFCARGYVDYGGATDLWGQGTLVTVSSGGGGSGGGGSIQMTQSPSSLSASVGDRVTITCQSSESVYSNNQLSWYQQKPGQPPKLLIYDASDLASGVPSRFSGSGSGTDFTLTISSLQPEDFATYYCAGGFSSSSDTAFGGGTKLTVLGGGGGSGGGGSGGGGSGGGGSEVQLVESGGGLVQPGGSLRLSCAASGFSLSSNAMGWVRQAPGKGLEYIGIISVGGFTYYASWAKGRFTISRDNSKNTVYLQMNSLRAEDTATYFCARDRHGGDSSGAFYLWGQGTLVTVSS
notes: trispecific scDb-scFv; also called 38-02-A04 sc13 scDb-i/37-20-B03 sc09.1 scDb-o/19-01-H04 sc03 scFv
- IC50 (ng/ml) (EC50 in Table 16C), NFkB reporter, HCC827 + IFNg, 24 h, +HSA [6]: 7.61 ng/mL
- rel. IC50 (PRO1186/test), 24 h [6]: 0.87 fold
- Area under the curve (calculated using PRO885 normalized data), first line (6 h by the order of the upper part) [7]: 191
- Area under the curve (calculated using PRO885 normalized data), second line (24 h by the order of the upper part) [7]: 207
- EC50 [ng/ml], NF-kB reporter, HCC827 + IFNg, +HSA, 6 h [7]: 7.38 ng/mL
- IC10/EC90 ratio, first line (6 h by the order of the upper part) [7]: 81.9
- IC10/EC90 ratio, second line (24 h by the order of the upper part) [7]: 523
- Maximum NF-kB activation (rel. to PRO1186) [%], first line (6 h by the order of the upper part) [7]: 108%
- Maximum NF-kB activation (rel. to PRO1186) [%], second line (24 h by the order of the upper part) [7]: 119%
- rel. Area under the curve (AUCsample/AUCPRO1186), first line (6 h by the order of the upper part) [7]: 1.11 fold
- rel. Area under the curve (AUCsample/AUCPRO1186), second line (24 h by the order of the upper part) [7]: 1.37 fold
- rel. EC50 (EC50, PRO1186/EC50, sample), NF-kB reporter, 6 h [7]: 1.74 fold
- rel. EC50 (EC50, PRO1186/EC50, sample), NF-kB reporter, 24 h [7]: 0.87 fold
- rel. IC10/EC90 (ratio of sample/ratio of PRO1186), first line (6 h by the order of the upper part) [7]: 0.25 fold
- rel. IC10/EC90 (ratio of sample/ratio of PRO1186), second line (24 h by the order of the upper part) [7]: 1.66 fold
- IC50 (ng/ml), NF-AT potency assay, +HSA [1]: 50.4 ng/mL
- rel. IC50 (avelumab/test), +HSA [1]: 1.04 fold
- Kd [8]: 0.976 nM
- IC50 [2]: 10.7 ng/mL
- rel. IC50 (IC50 avelumab/IC50 test) [2]: 1.38 fold
- Kd [4]: 0.0092 nM
- kon [4]: 4.2e+06 M⁻¹ s⁻¹
- Kd [9]: 1.7 nM
- koff [9]: 0.00054 s⁻¹
- kon [9]: 330000 M⁻¹ s⁻¹
- IC50 [5]: 2.65 ng/mL
- rel. IC50 (IC50 avelumab/IC50 test) [5]: 0.86 fold

B3: PRO997 (scFv)
scFv: DIQMTQSPSSLSASVGDRVTITCQASQSIGTYLAWYQQKPGKAPKLLIYRAFILASGVPSRFSGSGSGTDFTLTISSLQPEDFATYYCQSNFYSDSTTIGPNAFGTGTKVTVLGGGGGSGGGGSGGGGSGGGGSQVQLQESGPGLVKPSETLSLTCKVSGFSFNSDYWIYWIRQPPGKGLEWIGSIYGGSSGNTQYASWAQGRVTISVDSSKNQFSLKLSSVTAADTAVYYCARGYVDYGGATDLWGQGTLVTVSS
notes: also called 37-20-B03 sc01 scFv; 37-20-B03 CDR
- IC50 (ng/ml), NF-AT potency assay [1]: 11.1 ng/mL
- rel. IC50 (avelumab/test) [1]: 3.07 fold
- IC50 [2]: 6.36 ng/mL
- rel. IC50 (IC50 avelumab/IC50 test) [2]: 2.34 fold
- koff [3]: < 1e-05 s⁻¹
- kon [3]: 6e+06 M⁻¹ s⁻¹
- Kd [4]: ≤ 0.0017 nM
- fold higher affinity against the STR graft of clone 33-03-G02 [4]: ~2 fold
- koff [4]: < 2e-05 s⁻¹
- kon [4]: 5.9e+06 M⁻¹ s⁻¹
- IC50 [5]: 0.5 ng/mL
- rel. IC50 (IC50 avelumab/IC50 test) [5]: 4.16 fold

B4: PRO830 (scFv)
scFv: DIQMTQSPSSLSASVGDRVTITCQASQSINDYLAWYQQKPGKAPKLLIYKASTLASGVPSRFSGSGSGTDFTLTISSLQPEDFATYYCQQGYIITDIDNVFGTGTKVTVLGGGGGSGGGGSGGGGSGGGGSQVQLQESGPGLVKPSETLSLTCKVSGFSFSSGYDMCWIRQPPGKGLEWIGCVVAGSVDITYYASWAKGRVTISVDSSKNQFSLKLSSVTAADTAVYYCARKDAYSDAFNLWGQGTLVTVSS
notes: anti-PDL1 scFv; also called 33-03-G02 sc01 scFv; 33-03-G02 CDR
- IC50 (ng/ml), NF-AT potency assay [1]: 42.9 ng/mL
- rel. IC50 (avelumab/test) [1]: 0.73 fold
- IC50 [2]: 12.9 ng/mL
- rel. IC50 (IC50 avelumab/IC50 test) [2]: 1.16 fold
- koff [3]: 0.0002 s⁻¹
- kon [3]: 2.2e+06 M⁻¹ s⁻¹
- koff [4]: 0.00016 s⁻¹
- kon [4]: 2.1e+06 M⁻¹ s⁻¹
- IC50 [5]: 3.4 ng/mL
- rel. IC50 (IC50 avelumab/IC50 test) [5]: 0.61 fold
